Target: if4e_human EIF4E (UniProt P06730)
Sequence (P06730 whole entry): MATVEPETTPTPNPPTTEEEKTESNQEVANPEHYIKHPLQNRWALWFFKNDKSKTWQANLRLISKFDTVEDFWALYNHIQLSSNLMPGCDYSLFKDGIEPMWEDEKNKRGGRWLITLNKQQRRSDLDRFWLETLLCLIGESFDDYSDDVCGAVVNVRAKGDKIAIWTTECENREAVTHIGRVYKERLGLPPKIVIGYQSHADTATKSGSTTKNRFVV

Row | Substance | effect of a mutation on the interaction
1 | Genome polyprotein (Potato virus Y (strain N)), P18247 E1941K;E1945K | with no effect
2 | Genome polyprotein (Potato virus Y (strain N)), P18247 D1935K | with no effect
3 | Genome polyprotein (Potato virus Y (strain N)), P18247 D1954A;D1955A;E1957A | decreasing interaction
4 | Genome polyprotein (Potato virus Y (strain N)), P18247 E1929K;E1930K | with no effect
5 | Genome polyprotein (Potato virus Y (strain N)), P18247 M1958A;Q1959A | decreasing interaction
6 | Genome polyprotein (Potato virus Y (strain N)), P18247 L1961G | decreasing interaction
7 | Genome polyprotein (Potato virus Y (strain N)), P18247 D1954A;D1955A;Q1959A | decreasing interaction
8 | Genome polyprotein (Potato virus Y (strain N)), P18247 V1951G;E1952K | decreasing interaction

— IntAct's records for PubMed 31712417
